Experimental data as given in the DeepSol protein solubility set.

assay: soluble on expression in E. coli; label from the status in PepcDB or PDB records

Sequence | soluble on expression in E. coli
PAGHADDAMHSYFTFVAPDRGLAKVAAAQAAALRPFLAGTPLADLPLLSSVSPLKAGGRAGPDHYTDVPAGPLSMRHVADLHMFPNELRALVLTGADLREWLEMAAGVFLSPAPAGACDMLLDTSVPGHNFDSLYGLTYEIDPRAPPRYDIGGRLIADENRRIGSLCHNGTPVDDRQKFVVALNNYRANGGGHFLMLDRGEPVPLPSLRIQSALHDYLSGRLPADPLEQAPHPWRLAPL | not soluble
MGSDKIHHHHHHAPLPQAPIPAPSMSLPGFHAPPPSTSNGTVASGAVRTQPARMPFYVATKGKVTIYVLGTLHVGDPADYPANQPFRRPILAALAASPTLALELSPDDLLESQDDVSKYGVCNYACLPRLLPPPLWQKLANRLRGNPAALAGIRNMRPWLASLVVETYDSLSAGLQTEYGTEAQLQNVFLRKKGGKVVGLETLAEQMRAFTGLTLAQQREMLAQDMVQTPAQNAADVRALHRLWRIGDADAIAAWANAKTERLARARSIADSIDNKIVYERNRRFVARMTAIAAPNRPLFVAIGSLHLGGPKGVLELLRQQGYRVDAG | not soluble
MSLKKSWLGYAQGYLLYRDLNNHSMTAIRISPETLEQDGTVLLPDCHTEGQNILFTDGEYINQIAASRDDGFVVRIFATSTEPVLQQELQLKLARKCLHACGISLFDLEKDLHIISTGFDEESAILGAGREFALMKTANGKIYYTGKYQSLGIKQGGPSAGKWVELPITKSPKIVHFSVGHDGSHALLVAEDGSVFFTGSASKGEDGESTKSRRQSKPYKPKKIIKMEGKIVVYTACNNGSSSVISKDGELYMFGKDAIYSDSSSLVSDLKGHFVTQVAMGKAHTCVLMKNGEVWTFGVNNKGQCGRDTGAMNQGGKGFGVENMATAMDEDLEEELDEKDEKSMMCPPGMHKWKLEQCMVCTVCGDCTGYGASCVSSGRPDRVPGGICGCGSGESGCAVCGCCKACARELDGQEARQRGILDAVKEMIPLDLLLAVPVPGVNIEEHLQLRQEEKRQRVIRRHRLEDGRGPLVFAGPIFMNHREQALARLRSHPAQLKHKRDKHKDGSGDRGEKDASKITTYPPGSVRFDCELRAVQVSCGFHHSVVLMENGDVYTFGYGQHGQLGHGDVNSRGCPTLVQALPGPSTQVTAGSNHTAVLLMDGQVFTFGSFSKGQLGRPILDIPYWNAKPAPMPNIGSKYGRKATWIGASGDQTFLRIDEALINSHEGHHHHHH | not soluble
MNEQWLEHLPLKDIKEISPVSGGDVNEAYRVETDTDTFFLLVQRGRKESFYAAEIAGLNEFERAGITAPRVIASGEVNGDAYLVMTYLEEGASGSQRQLGQLVAQLHSQQQEEGKFGFSLPYEGGDISFDNHWQDDWCTIFVDKRLDHLKDELLNRGLWDANDIKVYDKVRRQIVAELEKHQSKPSLLHGDLWGGNYMFLKDGRPALFDPAPLYGDREFDIGITTVFGGFTSEFYDAYNKHYPLAKGASYRLEFYRLYLLMVHLLKFGEMYRDSVAHSMNKILQDTTSLEHHHHHH | not soluble
MSEVQQLPIRAVGEYVILVSEPAQAGDEEVTESGLIIGKRVQGEVPELCVVHSVGPDVPEGFCEVGDLTSLPVGQIRNVPHPFVALGLKQPKEIKQKFVTCHYKAIPCLYK | soluble
MGSDKIHHHHHHMVTSPSLKGLQAFEAAARAGSFAAAAEELSVSAAAVSQLIRTVEEQMGRKLFHRVNRKVVLTEAGVEILPRLTMAFQEIGSVSRELDGDAFRPRLVVSVPPSMAMGWLSQRLAGFVASHGAADISLRGDDDPVPFDRELIDIRLSYGPHYREHPTEDIARDAVYPVCAPGLASAIKADGGPLAGLPLIHTDWGPTGASFPSWRNWFEAEGVQPGRAAQRGLSANSSRAALDLAISGLGVTLAQGVYCAEALEDGRLVRPAARVIALRQPYCLTIPERSARRDVVAAFRDWLIEECRRAVGSPALR | not soluble
MLQKTKGIVLHTLKYNDTSIIVDMYTELSGRTSFLVPVPRSRKAAVKSVLFQPLSFIEFEADFRPNATLYRVKEAKSFYPFTSIPYDPYKSSMALFLAEFLYRAVREEAENRPLFAYLQHSVIWLDECREGFANFHLVFLMRLSRFLGLYPNLEDYHTGDYFDLLNACFTSTRPQLHSSYINPEEAGRLRQLMRMNYETMHLFGMSRAERTRCLTIMNDYYRLHLPDFPALKSLDVLKELFD | not soluble
MYVLIGGAGLIGQQLARQVLDQGHTVAVIDQDPQVCKMVRDRLGAMAFEGSAVNTDILLEAGICRADAVAAVLRQDALNLALVTLACHYGVSRIISRISQQDFIEPMRLAGAHHIISTVDLVVSTMVNAIECPQVESMLHFEQGQIEVFKLTLDSQSPVIGRSVAAIAQDRNFPSSSLIIGYQSHPQADLVIPSGNTVLEANATVLLATKPGLVQSLVNFLMPSLFSPLQPAGVLHQLEHHHHHH | soluble
MRMENQKDLQENYLKVLERVELGSRVSGTVVNIMKDYVLVDIGYKSEGFIKIEEFENVPQVGDRLEAIVVRIGGELGLILSVEKLNSLNFQDKVYEYIQNKKIIKGKVLVELPNGYKIQINENVSGFMPFYLSSKSKDEKLKRGSVVEFYILEASEADGLRLILDRRTLEKERDLAKRIELVSSYNEEDVVDGVVERITEYGAIVKIKNFVTGILHKRNIAFNQVENVEDFVRVGDKLKLKIIKINPQTGKMELSLKALKANPWDSVDVKYKIDSIVKGKVVKILPFGAVIELDSELSGFLHISNFSWIRVVKSPQELIKLGQIVEVKILEIDKENQKISLGIKQINENPWERLTEKYPIGRVVQGVVTNITKTGAFVNIEEGIDAYVSKFDISWLEEIDPEEYFKIGDLVNGKVLEVDKRKRNVRLGIKQLEESPWEDFSKSYKKGDTIEVEIVEKKSKGFQVRVYNKIMGFISKIQLGDTKESSLETFEKLNVGDKLKVVITSIDSKDKSVLLSYREYENQRSREEISSYLFKGNDEESYKPFENLLKRDELEHHHHHH | soluble
GPGSMAPAVIEIHIPLDRIRNEEYATDDLLLNCLSKIGDTPEEDGLPLRTWILREAHQALIKSPKLRTVLVKPQTVKDKPTHFQICFDE | soluble
MSDWSPMHEAAIHGHQLSLRNLISQGWAVNIITADHVSPLHEACLGGHLSCVKILLKHGAQVNGVTADWHTPLFNACVSGSWDCVNLLLQHGASVQPESDLASPIHEAARRGHVECVNSLIAYGGNIDHKISHLGTPLYLACENQQRACVKKLLESGADVNQGKGQDSPLHAVARTASEELACLLMDFGADTQAKNAEGKRPVELVPPESPLAQLFLEREGPPSLMQLCRLRIRKCFGIQQHHKITKLVLPEDLKQFLLHL | soluble
MGSDKIHHHHHHMSNDIDLIKRLGPSAMDQIMLYLAFSAMRTSGHRHGAFLDAAATAAKCAIYMTYLEQGQNLRMTGHLHHLEPKRVKIIVEEVRQALMEGKLLKTLGSQEPRYLIQFPYVWMEQYPWIPGRSRIPGTSLTSEEKRQIEHKLPSNLPDAQLVTSFEFLELIEFLHKRSQEDLPPEHRMELSEALAEHIKRRLLYSGTVTRIDSPWGMPFYALTRPFYAPADDQERTYIMVEDTARYFRMMKDWAEKRPNAMRALEELDVPPERWDEAMQELDEIIRTWADKYHQVGGIPMILQMVFGRKED | not soluble
MLAKVLKKRGAVLRGDFVLSSGRRSSVYIDMRRLLGDESSYSVALDLLLEVGGQDLARSSAVIGVATGGLPWAAMLALRLSKPLGYVRPERKGHGTLSQVEGDPPKGRVVVVDDVATTGTSIAKSIEVLRSNGYTVGTALVLVDRGEGAGELLARMGVRLVSVATLKTILEKLGWGGE | soluble
MVEVHACSPGCRHHLGGAGWGDAPLVRLGYNKEARAKKFPYLKALLERPLVFDGAMGTELQKRDLTPEDYGGEAYFGCPEVLNRTRPEVVREIHLAYLEAGAEVIETNTFGALRHVLAEYGLEEAAEELAFLGARIAREAADPHGAFVAGALGPGTKLVSLGQISWDALYRAYKEAARGLLKGGVDLILLETAQDILQVRCAVLAVREAMAEVGREVPLQVQVTFEATGTMLVGTDEQAALAALESLPVDVVGMNCATGPDLMDSKVRYFAEHSTRFVSCLPNAGLPRNEGGRVVYDLTPEELAKWHLKFVAEYGVNAVGGCCGTGPEHIRKVAEAVKGLAPKPRPESFPPQVASLYQAVSLKQEASLFLVGERLNATGSKRFREMLFARDLEGILALAREQVEEGAHALDLSVAWTGRDELEDLRWLLPHLATALTVPVMVDSTSPEAMELALKYLPGRVLLNSANLEDGLERFDRVASLAKAHGAALVVLAIDEKGMAKTREEKVRVALRMYERLTEHHGLRPEDLLFDLLTFPITQGDEESRPLAKETLLAMEELRERLPGVGFVLGVSNVSFGLKPRARRVLNSVFLDEARKRGLTAAIVDAGKILPISQIPEEAYALALDLIYDRRKEGFDPLLAFMAYFEAHKEDPGKREDAFLALPLLERLKRRVVEGRKQGLEADLEEALKAGHKPLDLINGPLLAGMKEVGDLFGAGKMQLPFVLQAAEVMKRAVAYLEPHMEKKGEGKGTLVLATVKGDVHDIGKNLVDIILSNNGYRVVNLGIKVPIEEILKAVEAHKPHAVGMSGLLVKSTLVMKENLEYMRDRGYTLPVILGGAALTRSYVEELRAIYPNVYYAEDAFEGLRLMEELTGHAPPELTRKAPARPKREAPKVAPRARPVGEAPAVPRPPFFGVRVEEGLDLATIAHYVNKLALYRGQWGYSRKGLSREAWQALVEREAEPVFQRLLKEAMAEGWLEPKVLYGFFPVAREGEELLVFSPETGEVLERFRFPRQKGGGLSLVDYFRPRFAAPLGDEADWMPKEAFRAGARDVLGVQLVTMGEAPSRKAQALFASGAYQDYLFVHGFSVEMTEALAEYWHKRMRQMWGIAHQDATEIQKLFQQGYQGARYSFGYPACPDLADQAKLDRLMGFHRVGVRLTENFQLEPEHATSALVVHHPEARYFSVD | soluble
MMKVLAFDTSSKALSVAVLNNMECLATVTINIKKNHSINLMPAIDFLMQSIDLEPQDLDRIVVAEGPGSYTGLRVAVATAKMLAYTLKIDLVGVSSLYALTNGFSENDLLVPLIDARRNNVYVGFYQNGDTVKPDCHTSLEEVLQEVGNKANVHFVGEVAAFFDQIKKALPHAKITETLPCAVAIGRKGQKMKSVNVDAFVPRYLKRVEAEENWLKNHCETNTEEYIKRVLEHHHHHH | not soluble
MAHHHHHHMSVIGVFSKGRATGHASVMSVLRYVPRARVPWQPSRFGRENLADDDMAQLWGTGRYRTGPGNYNSGYSTKKTHALEDSTVSIIPKHELEKFMPDISLGSKALVTPVSLMSARNGHRVTHDLIHSYDPYIGRLQKPAVVDHDNITVEDPNRVGLNAATLDCRSRIYRWLRRGPFFQEDNYFRRSTKLQRNGPVPVSVHEVPLMQRIIRLARRGHLKAACEEYRRVTSVPPVDVYRALTAACVPGAKLADAIAIFEDGHSRLFYVARDGEVLHNMLRCAIRAKHRVRVMWVYNVMVGRHYENVVVRAEVDVIWRYRIASLALEYLLDSNAGEEARTVYDYLVENELVDCDLHVRLGHVMQQALKEGKTVHVQQDALDGMALSQNVVAVAPQVAVAVYARYLETMQEGAAWTDARGLPLTDPAKTGADTNGAAAVAWLKAAFPDIDPVAVLRLARFRRSSKDLMAKDRPVYVQRAAQWVELLSSAHQTREEAPLTYLRKSRPSMANPNVRVAWLPERQRAHALLASDEGFKFAYAGPHTRFVEETFAYGENTLQSRYLAQQPVHTEVTPSVALGAAAVAAGMSSGSALPRLPGSSAAPQILHASVLLDGSLNGSSGSGTSTLRSGRNESAKAAASPTAGISSRPSSASSSAGLDDTHF | not soluble
MIRVKRLDHVQICIPFGAEDEARAFYTGVLGFQEIEKPESLKGNGGLWYKVGDIQLHIGAENRDGYNSKSHPAFEVEDVEAARRYLEEHGVATQDEKPIPGVKRFSFRDPFRNRIELLEKIM | not soluble
DPSVFSLPDSKLPGDKEFVPWQQDLDDSVKPTQQARPTVIRWSEGGKEVFISGSFNNWSTKIPLIKSHNDFVAILDLPEGEHQYKFFVDGQWVHDPSEPVVTSQLGTINNLIHVKKSDFEVFDALKLDSMESSETSCRV | not soluble
